Values of other authors, collected in article PMC10385628.

Target: neuropilin-1 (Homo sapiens) (UniProt O14786)
Sequence of UniProt O14786 (O14786 22-856): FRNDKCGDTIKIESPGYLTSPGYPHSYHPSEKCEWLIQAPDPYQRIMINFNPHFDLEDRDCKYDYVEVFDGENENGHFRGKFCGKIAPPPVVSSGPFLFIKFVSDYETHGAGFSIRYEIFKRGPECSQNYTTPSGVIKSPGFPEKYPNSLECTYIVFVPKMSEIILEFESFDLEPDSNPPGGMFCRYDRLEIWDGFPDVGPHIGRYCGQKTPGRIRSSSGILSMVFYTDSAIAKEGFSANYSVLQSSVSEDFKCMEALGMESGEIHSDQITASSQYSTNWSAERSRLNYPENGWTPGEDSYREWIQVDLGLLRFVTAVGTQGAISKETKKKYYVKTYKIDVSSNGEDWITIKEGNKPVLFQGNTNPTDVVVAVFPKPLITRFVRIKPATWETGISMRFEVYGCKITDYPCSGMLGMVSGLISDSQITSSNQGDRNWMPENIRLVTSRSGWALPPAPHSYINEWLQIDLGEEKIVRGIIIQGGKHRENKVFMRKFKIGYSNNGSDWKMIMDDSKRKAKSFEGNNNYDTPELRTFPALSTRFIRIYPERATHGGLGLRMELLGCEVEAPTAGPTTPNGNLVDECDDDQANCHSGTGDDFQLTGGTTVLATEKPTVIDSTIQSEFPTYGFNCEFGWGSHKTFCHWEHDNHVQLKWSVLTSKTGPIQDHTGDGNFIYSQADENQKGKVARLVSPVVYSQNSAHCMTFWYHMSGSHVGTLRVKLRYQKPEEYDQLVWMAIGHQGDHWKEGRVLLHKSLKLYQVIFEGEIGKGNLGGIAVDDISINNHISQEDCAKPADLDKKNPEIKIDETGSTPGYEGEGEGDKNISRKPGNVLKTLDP

Question: With KDKPPR peptide as the substance, how does the Kd read?
Answer: Its Kd is 500 nM.
